The target in assay [1] is NT binding sites within rat brain (PAG and rest of brain homogenates) (rat). Kind of assay: 0.3 nM [125I]NT binding to PAG homogenate of control rats.
Assay [2] shares this target. Kind of assay: 0.3 nM [125I]NT binding to PAG homogenate of NT69L-treated rats.
Assay [3] has the same target. Kind of assay: 0.3 nM [125I]NT binding to rest-of-brain homogenate of NT69L-treated rats.
Assay [4] has as its target T1, rat NTR1 (rat, UniProt P20789 1-424). In words: radiolabeled competitive binding assay, CHO cells expressing rat NTR (repeats Table II). The method, then: (§1) For binding assays, crude membranal preparations were prepared by centrifugation of the cellular pellet at 35,600×g for ten minutes. The supernatant was decanted and discarded, and the cellular pellet was resuspended in 2 mL of Tris-HCl, 1 mM EDTA (pH 7.4) followed by homogenization with a Brinkmann Polytron at setting 6 for ten seconds. Centrifugation was repeated as above and the supernatant was decanted and discarded. The resulting final cellular pellet was resuspended in 50 mM Tris-HCl, 1 mM EDTA, 0.1% bovine serum albumin, and 0.2 mM bacitracin.
(§2) Incubation was at 20° C. for 30 minutes. Each reaction was terminated by addition of cold 0.9% NaCl (5×1.5 mL) followed by rapid filtration through a GF/B filter strip that had been pretreated with 0.2% polyethylenimine.

The target in assay [5] is T1, rat NTR1. In words: competition with [3H]NT, membranes of CHO-K1 cells expressing rat NTR1. The method, then:
as §1, §2

In assay [6] the target is T1, rat NTR1. In words: cell-based or functional assay.
The target in assay [7] is T2, human NTR1 (human, UniProt P30989 1-418). In words: radiolabeled competitive binding assay, CHO cells expressing human NTR (repeats Table II). The method, then:
as §1, §2

In assay [8] the target is T3, 5HT2A receptor in human brain tissue (human, UniProt P28223 1-471).
T3 construct: whole, on cells; Native receptor in human brain tissue, labeled with [3H]ketanserin; also called serotonin receptor
T3 sequence (P28223 whole entry): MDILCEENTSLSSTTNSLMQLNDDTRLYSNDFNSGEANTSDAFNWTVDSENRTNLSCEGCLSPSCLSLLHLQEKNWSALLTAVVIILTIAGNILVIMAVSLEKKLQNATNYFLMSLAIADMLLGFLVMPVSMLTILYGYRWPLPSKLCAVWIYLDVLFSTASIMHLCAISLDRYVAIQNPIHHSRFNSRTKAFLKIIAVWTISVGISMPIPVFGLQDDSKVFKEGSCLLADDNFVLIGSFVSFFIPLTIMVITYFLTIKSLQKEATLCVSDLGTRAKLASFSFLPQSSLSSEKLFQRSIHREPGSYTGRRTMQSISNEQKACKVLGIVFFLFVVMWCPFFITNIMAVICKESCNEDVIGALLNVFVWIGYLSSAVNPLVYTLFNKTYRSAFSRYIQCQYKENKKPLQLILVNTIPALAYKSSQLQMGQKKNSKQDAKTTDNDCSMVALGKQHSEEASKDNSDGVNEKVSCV
Kind of assay: competition with [3H]ketanserin, human brain tissue.

The target in assay [9] is T2, human NTR1. Kind of assay: competition with [3H]NT, membranes of CHO-K1 cells expressing human NTR1.
Assay [10] has as its target adrenergic α2 receptors, human brain tissue (human). Kind of assay: radiolabeled competitive binding assay, human brain tissue.
Assay [11] has as its target Dopamine receptors, human brain tissue (human) (UniProt P14416). The assay is described as above.
The target in assay [12] is T2, human NTR1. In words: cell-based or functional assay.
Assay [13] deals with T2, human NTR1. In words: competition with [3H]NT, membranes of CHO-K1 cells expressing human NTR1. On the procedure:
as §1, §2

Assay [14] concerns the target T2, human NTR1. Kind of assay: competition with [3H]NT, CHO-K1 membranes; receptor not given, human fits Table II. On the procedure:
as §1, §2

Assay [15] deals with adrenergic α1 receptors, human brain tissue (human). In words: radiolabeled competitive binding assay, human brain tissue.
Assay [16] deals with T2, human NTR1. In words: cell-based or functional assay. This is another data set of the same source.
Assay [17] has as its target T2, human NTR1. Kind of assay: competition with [3H]NT, CHO-K1 membranes; receptor not given, human taken from the context. The method, then:
as §1, §2

The target in assay [18] is T2, human NTR1. In words: cell-based or functional assay. The source holds these as a separate data set.

Like-named read-outs stand apart in the source and are kept apart here. Numbered stars: 1 amine (or outer) side, 2 acyl side, 3 side chain; on linkers, the order of the positions; unused ones are H or OH. Square brackets hold non-standard residues; d marks the D form. Ends that are not written are not given here. dneoTrp = D-neo-Trp, (2R)-2-amino-3-(1H-indol-4-yl)propanoic acid, O=C([C@@H](Cc1cccc2[nH]ccc12)N[*:1])[*:2]; Ala(indol-4-yl) = N[C@@H](Cc1cccc2[nH]ccc12)C(=O)O; 1Nal = N[C@@H](Cc1cccc2ccccc12)C(=O)O; NMeR = CN[C@@H](CCCNC(=N)N)C(=O)O; Tle = CC(C)(C)[C@H](N)C(=O)O

T1 sequence (P20789 whole entry): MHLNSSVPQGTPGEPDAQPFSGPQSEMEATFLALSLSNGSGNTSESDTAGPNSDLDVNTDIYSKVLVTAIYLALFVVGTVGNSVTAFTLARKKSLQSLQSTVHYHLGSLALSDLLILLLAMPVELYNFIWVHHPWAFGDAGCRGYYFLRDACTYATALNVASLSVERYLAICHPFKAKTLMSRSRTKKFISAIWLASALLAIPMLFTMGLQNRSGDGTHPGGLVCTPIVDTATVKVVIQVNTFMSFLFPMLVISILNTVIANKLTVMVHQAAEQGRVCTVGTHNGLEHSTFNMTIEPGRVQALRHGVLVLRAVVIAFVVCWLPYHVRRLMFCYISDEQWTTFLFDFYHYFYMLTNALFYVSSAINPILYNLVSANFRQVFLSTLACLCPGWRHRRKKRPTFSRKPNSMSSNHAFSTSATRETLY
T2 sequence (P30989 whole entry): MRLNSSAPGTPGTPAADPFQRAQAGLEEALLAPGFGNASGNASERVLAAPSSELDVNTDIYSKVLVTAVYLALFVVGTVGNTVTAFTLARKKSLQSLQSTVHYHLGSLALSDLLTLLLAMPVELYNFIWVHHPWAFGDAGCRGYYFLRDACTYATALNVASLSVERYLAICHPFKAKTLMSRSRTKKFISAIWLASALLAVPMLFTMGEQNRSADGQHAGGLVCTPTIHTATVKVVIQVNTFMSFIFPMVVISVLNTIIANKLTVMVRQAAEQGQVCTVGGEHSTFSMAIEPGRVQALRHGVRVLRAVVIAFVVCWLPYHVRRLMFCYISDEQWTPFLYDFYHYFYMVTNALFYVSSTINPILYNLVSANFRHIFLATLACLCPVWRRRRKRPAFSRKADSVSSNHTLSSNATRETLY
Dopamine receptors, human brain tissue (human), sequence (P14416 whole entry): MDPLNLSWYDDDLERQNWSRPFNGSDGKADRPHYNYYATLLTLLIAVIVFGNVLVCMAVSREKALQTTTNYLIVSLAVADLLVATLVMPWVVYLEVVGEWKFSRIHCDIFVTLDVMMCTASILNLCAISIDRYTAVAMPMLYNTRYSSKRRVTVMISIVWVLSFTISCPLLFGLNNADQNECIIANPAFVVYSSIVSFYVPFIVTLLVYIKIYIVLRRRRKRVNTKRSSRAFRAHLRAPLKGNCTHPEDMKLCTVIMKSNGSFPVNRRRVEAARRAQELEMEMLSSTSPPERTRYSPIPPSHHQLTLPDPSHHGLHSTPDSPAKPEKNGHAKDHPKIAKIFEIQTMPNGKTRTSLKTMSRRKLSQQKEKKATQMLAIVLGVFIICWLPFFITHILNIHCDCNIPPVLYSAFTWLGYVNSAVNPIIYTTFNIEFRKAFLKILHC

As for Neurotensin (NT) (peptide), the dpm/µg protein (dpm/µg protein) came to 2.34 in assay [1], 1.89 in assay [2] and 2.1 in assay [3].

In general, Kd refers to the constant that tells how readily two partners part at equilibrium. A higher Kd goes with lower affinity. Take NT69L (peptide): the equilibrium dissociation constant (Kd) in assay [4] was 0.82 nM; in assay [5], 0.82 nM; in [7], 1.55 nM; in assay [8], 34600 nM; in assay [9], 1.55 nM; in assay [10] it was 58600 nM. This molecule also yielded a dissociation constant Kd in [11] of 13300 nM. The fold increase in binding affinity over Eisai came to 6 fold in [5] and 60 fold in assay [9]. For the same molecule, the values for the PI Turnover EC50 in [6] and in assay [12] were 1.34 nM and 2.3 nM, respectively. Besides, the results for the PI turnover potency, fold improvement over Eisai analog in assay [6] and in assay [12] were 2 fold and 130 fold, respectively.

Consider RRP[Ala(indol-4-yl)][Tle]L (NT(8-13) analog) [NT65L], for which the figures for the equilibrium dissociation constant (Kd) in [13] and in [5] were 0.32 nM and 0.075 nM, respectively. In addition, in [14], the “fold decrease in binding affinity compared to NT64L” value came to 3 fold.

With [dK]RP[Ala(indol-4-yl)]IL (NT(8-13) analog) [NT67L], the Kd in [4] is 0.21 nM; in assay [5] it was 0.21 nM; in [8] it was 7400 nM; in [15], 6900 nM. Moreover, the “PI Turnover EC50” value in assay [6] turned out to be 13 nM.

Take RRP[Ala(indol-4-yl)]IL (NT(8-13) analog) [NT64L]: the Kd in [5] is 0.1 nM; in assay [8], 6600 nM. Moreover, the “PI Turnover EC50” value in assay [6] was determined as 2.3 nM.

B1: NT(9-13) (peptide)
peptide: RPYIL
notes: Synthetic pentapeptide, residues 9-13 of neurotensin
For the molecule B1, the dissociation constant (Kd) was determined as 30 nM in assay [13], 46 nM in assay [5] and 6340 nM in assay [8]. The “fold weaker than NT(8-13)” value in [13] and in assay [5] was above 200 fold in each case. For the same molecule, in assay [16], the “PI Turnover EC50” value turned out to be 380 nM.

B2: NT(8-13) (peptide)
peptide: RRPYIL
notes: Synthetic hexapeptide, residues 8-13 of neurotensin
Molecule B2 gave a dissociation constant Kd in assay [8] of 4400 nM.

On to RRPWIL [NTW], for which the Kd turned out to be 3.2 nM in assay [13] and 0.34 nM in assay [5]. In addition, the “PI Turnover EC50” value in assay [16] turned out to be 110 nM. In addition, the “fold reduction in binding affinity compared to NT64L” value in assay [17] is above 30 fold.

Take [dK]RPYIL (NT(8-13) analog) [NT2]: the dissociation constant Kd in [5] worked out at 0.8 nM; in assay [8], 6800 nM.

RRP[1Nal]IL (NT(8-13) analog) [NT34]: binding in assay [5] was characterised by a dissociation constant (Kd) of 0.046 nM.

B3: Eisai (peptide)
peptide: [NMeR]KPW[Tle]L
notes: Hexapeptide N-methyl-Arg, L-Lys, L-Pro, L-Trp, tert-Leu, L-Leu (Tsuchiya et al., EP application 89104302.8); also called Eisai compound; Eisai analog
For B3, the dissociation constant (Kd) in assay [13] came out at 95 nM; in assay [5] it was 5.4 nM. The “fold weaker than at the rat receptor” value in [13] was around 20 fold. The “PI Turnover EC50” value in assay [16] turned out to be 300 nM; in [6], 3.1 nM. In addition, the “PI turnover potency, fold weaker at human than at rat NT receptor” value in assay [18] was around 100 fold.

On to RRP[dneoTrp]IL (NT(8-13) analog) [NT64D], for which the Kd in assay [5] amounted to 3.8 nM.

For the origin of these results see patent US7642231 (MAYO FOUNDATION FOR MEDICAL EDUCATION AND RESEARCH A …, dated 2010).
